From patent US20040014209A1, “Compositions and methods for modulating cell differentiation” (priority 2002, published 2004)

Assays:
SP cells = experiment: FACS of Hoechst 33342 treated quail SP cells; format: cell-based; details: negative control in FACS sorting
Protocol: SP cells were isolated from quail by FACS isolation relying on Hoechst 33342 and propidium iodide to distinguish different cell populations. Cells were incubated in Hoechst 33342 at 37° C. for 60-90 minutes. Cells were then collected by centrifugation, washed in PBS and resuspended in a propidium iodide solution. As a negative control, a fraction of the primary cells were incubated in parallel with verapamil, which blocks Hoechst 33342 efflux. Sorting was performed on a FACS Advantage Plus flow cytometer and fluorescence of Hoechst 33342 and propidium iodide was measured on a linear scale (Goodell et al. (1996) J. Exp. Med. 183:1797; Goodell et al. (1997) Nat. Med. 3:1337 and Gussoni et al. (1999) Nature 401:390). The cells were then pelleted by centrifugation.

[1] = system: presumptive heart field of chick embryos; experiment: Implantation of Wnt-expressing cell pellets into the precardiac region of embryos in New culture; format: in vivo; details: cell pellets implanted at stage 3+ to 4; in situ hybridization
Excerpt: FIG. 15. Overexpression of Wnt genes blocks cardiogenesis in precardiac mesoderm. (A) Whole-mount in situ hybridization for Nkx-2.5 in chick embryos in which pellets of chick embryo dermal fibroblasts infected with either RCAS-mWnt-3a or control RCAS-AP were implanted into the precardiac region of embryos in New culture at stage 3^+ to 4. […] (B) Red line in A indicates the level of this section. […] (C) Ectopic Wnt expression suppresses cardiogenesis in anterior lateral plate mesoderm explants. Stage 5 anterior lateral plate mesoderm from the precardiac region was infected with either control virus (RCAS-GFP, lane 1; RCAS-AP, lane 3), or RCAS-Wnt-3a (lane 2) or RCAS-Wnt-8c (lane 4). Cultures were carried out in the presence of 200 ng/mL BMP-4 overnight followed by 48 h in 20 ng/mL BMP-4. Transcript levels were evaluated by RT-PCR.
As inhibition of Wnt signaling can induce cardiogenesis in the PLP mesoderm, we hypothesized that expression of Wnt signals in the heart field would have the opposite effect. To address this issue, we examined whether ectopic expression of Wnt-3a in the presumptive heart field affects the expression of Nkx-2.5 in vivo. […] However, these in vivo experiments affected all three germ layers. […]

APMEE explants = experiment: APMEE explant culture, cardiac gene expression by RT-PCR; format: cell-based, chick; details: stage 9 APMEE explants; RCAS-Wnt-3a infection (n=24) or coculture with Rat-1/Wnt-1-HA cells (n=12)
stage 7 chick embryos = experiment: Cell pellet implantation into stage 7 chick embryos in New culture (heart looping, DiI tracing, in situ hybridization); format: in vivo; details: fibroblasts expressing Wnt-1 implanted into one side of heart-forming region, stage 7

Molecule: COc1ccc(CCN(C)CCCC(C#N)(c2ccc(OC)c(OC)c2)C(C)C)cc1OC (stereo not shown) [verapamil]
- Hoechst 33342 dye retention of SP cells (SP cells): blocks the channel(s) responsible for low dye retention

B1: Wnt-1: delivered by Rat-1 cells stably overexpressing Wnt-1 (protein, UniProt P04426 28-370, looked up)
Proto-oncogene Wnt-1: ANSSGRWWGIVNIASSTNLLTDSKSLQLVLEPSLQLLSRKQRRLIRQNPGILHSVSGGLQSAVRECKWQFRNRRWNCPTAPGPHLFGKIVNRGCRETAFIFAITSAGVTHSVARSCSEGSIESCTCDYRRRGPGGPDWHWGGCSDNIDFGRLFGREFVDSGEKGRDLRFLMNLHNNEAGRTTVFSEMRQECKCHGMSGSCTVRTCWMRLPTLRAVGDVLRDRFDGASRVLYGNRGSNRASRAELLRLEPEDPAHKPPSPHDLVYFEKSPNFCTYSGRLGTAGTAGRACNSSSPALDGCELLCCGRGHRTRTQRVTERCNCTFHWCCHVSCRNCTHTRVLHECL
- Nkx-2.5 expression in the presumptive heart field [1]: similarly extinguished endogenous Nkx-2.5 expression
- APMEE explants in which cardiogenesis was blocked (APMEE explants): 50%
- Nkx-2.5 expression in heart-forming region (stage 7 chick embryos): blocked subsequent expression of Nkx-2.5
